Measured values reported in paper PMC5727386.

What was measured:
[1] = target: Tyrosine phosphatase Sts1 (UniProt Q8BGG7); assay: co-immunoprecipitation (anti-Bcr-Abl/Abl IP, Sts1 immunoblot, quantified); settings: BaF3 cells stably transduced with the Bcr-Abl variants; parent: est. 1.0; read off a plot
[2] = target: Bcr-Abl DH domain (residues 487–702) (UniProt P11274); assay: NMR titration; GTPase titrated to 50 μM 15N-labeled DH domain; 50 mM HEPES pH 7, 50 mM NaCl, 1 mM DTT, 1 mM imidazole, 2 mM EDTA; [15N,1H]-TROSY; about 10 peaks fitted to a 1:1 binding model, mean Kd
Bcr-Abl DH domain (residues 487–702), sequence (P11274 487-702): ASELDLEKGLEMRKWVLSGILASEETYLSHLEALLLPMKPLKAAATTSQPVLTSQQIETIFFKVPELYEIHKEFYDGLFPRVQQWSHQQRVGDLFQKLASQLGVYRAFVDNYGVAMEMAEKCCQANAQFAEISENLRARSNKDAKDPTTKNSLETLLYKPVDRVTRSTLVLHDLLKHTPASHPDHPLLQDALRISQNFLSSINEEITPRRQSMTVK

Tyrosine phosphatase Sts1, sequence (Q8BGG7 whole entry, the tested form may be a part): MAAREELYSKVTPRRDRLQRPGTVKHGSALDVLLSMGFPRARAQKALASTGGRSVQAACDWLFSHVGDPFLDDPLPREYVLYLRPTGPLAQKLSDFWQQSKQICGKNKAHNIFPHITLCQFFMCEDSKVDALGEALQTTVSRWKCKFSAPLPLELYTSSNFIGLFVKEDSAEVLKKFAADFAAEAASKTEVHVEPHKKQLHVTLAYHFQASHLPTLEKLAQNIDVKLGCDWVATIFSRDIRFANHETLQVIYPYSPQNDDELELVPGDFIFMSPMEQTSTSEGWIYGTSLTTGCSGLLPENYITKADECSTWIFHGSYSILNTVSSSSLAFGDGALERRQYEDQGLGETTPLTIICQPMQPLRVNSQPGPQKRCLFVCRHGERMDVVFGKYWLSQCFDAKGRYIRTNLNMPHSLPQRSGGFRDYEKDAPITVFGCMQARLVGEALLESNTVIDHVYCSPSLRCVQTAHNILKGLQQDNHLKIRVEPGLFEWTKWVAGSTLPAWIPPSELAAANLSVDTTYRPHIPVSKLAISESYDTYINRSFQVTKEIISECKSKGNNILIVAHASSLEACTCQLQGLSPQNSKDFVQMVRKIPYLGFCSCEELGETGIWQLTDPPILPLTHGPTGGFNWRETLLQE
Bcr-Abl p210 (from UniProt P11274) R723A; K724A; F1100E, sequence (P11274 whole entry, stated change not applied): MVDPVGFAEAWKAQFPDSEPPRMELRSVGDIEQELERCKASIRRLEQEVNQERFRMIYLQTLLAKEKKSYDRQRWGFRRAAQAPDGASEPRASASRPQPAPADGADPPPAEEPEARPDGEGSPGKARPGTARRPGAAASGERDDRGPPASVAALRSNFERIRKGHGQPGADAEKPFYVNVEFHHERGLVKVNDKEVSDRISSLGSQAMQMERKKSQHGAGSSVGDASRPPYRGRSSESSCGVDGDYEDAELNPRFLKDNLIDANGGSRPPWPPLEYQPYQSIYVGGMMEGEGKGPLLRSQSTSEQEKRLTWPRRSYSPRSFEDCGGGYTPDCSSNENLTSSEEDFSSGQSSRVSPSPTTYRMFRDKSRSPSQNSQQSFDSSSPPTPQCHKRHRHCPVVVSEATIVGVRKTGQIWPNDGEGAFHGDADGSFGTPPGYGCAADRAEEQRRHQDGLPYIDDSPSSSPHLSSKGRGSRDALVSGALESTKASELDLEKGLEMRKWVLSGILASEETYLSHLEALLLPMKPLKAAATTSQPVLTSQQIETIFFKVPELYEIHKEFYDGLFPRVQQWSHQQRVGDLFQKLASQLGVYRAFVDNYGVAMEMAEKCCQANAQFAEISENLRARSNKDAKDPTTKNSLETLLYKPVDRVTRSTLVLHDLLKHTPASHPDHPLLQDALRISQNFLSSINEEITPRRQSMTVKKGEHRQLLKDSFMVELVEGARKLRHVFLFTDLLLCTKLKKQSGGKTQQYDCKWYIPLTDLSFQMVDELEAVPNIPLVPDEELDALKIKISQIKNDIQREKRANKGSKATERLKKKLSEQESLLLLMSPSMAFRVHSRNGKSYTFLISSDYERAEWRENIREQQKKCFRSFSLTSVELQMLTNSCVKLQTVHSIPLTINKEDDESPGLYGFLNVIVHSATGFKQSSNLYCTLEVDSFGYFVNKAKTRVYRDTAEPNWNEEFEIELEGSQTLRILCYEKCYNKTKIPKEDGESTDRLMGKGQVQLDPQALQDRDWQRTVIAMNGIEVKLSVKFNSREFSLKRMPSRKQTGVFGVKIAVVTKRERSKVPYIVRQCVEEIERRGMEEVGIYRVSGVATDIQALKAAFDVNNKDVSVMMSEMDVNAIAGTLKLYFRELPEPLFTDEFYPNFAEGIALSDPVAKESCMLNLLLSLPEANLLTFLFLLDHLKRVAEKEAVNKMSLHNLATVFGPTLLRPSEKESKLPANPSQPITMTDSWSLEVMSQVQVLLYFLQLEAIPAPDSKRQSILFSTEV
Bcr-Abl p210 (from UniProt P11274) R726A; F1100E, sequence (P11274 whole entry, stated change not applied): as above
Bcr-Abl p210 (from UniProt P11274) F1100E, sequence (P11274 whole entry, stated change not applied): as above

Substance	ratio to parent [1]	Kd [2] [µM]
Bcr-Abl p210 (from UniProt P11274) R726A; F1100E	0.5	–
Bcr-Abl p210 (from UniProt P11274) F1100E	0.55	–
Bcr-Abl p210 (from UniProt P11274) R723A; K724A; F1100E	0.24	–
Cdc42 (from UniProt P60953 1-191) (enzyme)	–	1900
RhoA (from UniProt P61586 1-193) (enzyme)	–	600
